Experimental data: the supplement of paper PMC9112550, “Optimization of the antimicrobial peptide Bac7 by deep mutational scanning” (BMC Biology, 2022)

What follows are sequences tested on Escherichia coli TOP10 (assay: shrunken log2 fold change of peptide-encoding DNA abundance (4.5 h post-induction vs induction); higher = less antimicrobial activity (less host growth inhibition)). Details: time post-induction: 4.5 h; library: site-saturation at positions 5, 18, 19, 20.
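Also: peptides expressed intracellularly from a pBAD plasmid library in pooled LB shake-flask culture, induced with 0.3% L-arabinose, DNA abundance read by NGS, three biological replicates, DESeq2 with apeglm shrinkage.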

Sequence | shrunken log2 fold change
RRIRKRPPRLPRPRPRPYAEPRP | -0.0528
RRIRGRPPRLPRPRPRPMMEPRP | 0.372
RRIRLRPPRLPRPRPRPNCYPRP | -0.422
RRIRARPPRLPRPRPRPPQDPRP | 1.13
RRIRVRPPRLPRPRPRPTSNPRP | -0.296
RRIRKRPPRLPRPRPRPSCDPRP | 0.141
RRIRNRPPRLPRPRPRPKYFPRP | -0.0727
RRIRVRPPRLPRPRPRPRNPPRP | 0.148
RRIRDRPPRLPRPRPRPWMCPRP | -0.0722
RRIRQRPPRLPRPRPRPEDWPRP | -0.106
RRIRVRPPRLPRPRPRPFRHPRP | -0.185
RRIRHRPPRLPRPRPRPDPYPRP | -0.126
RRIRERPPRLPRPRPRPCLDPRP | -0.0689
RRIRIRPPRLPRPRPRPSGNPRP | 0.0322
RRIRQRPPRLPRPRPRPSCTPRP | -0.167
RRIRHRPPRLPRPRPRPRVHPRP | 0.0785
RRIRSRPPRLPRPRPRPSWLPRP | -0.101
RRIRDRPPRLPRPRPRPHLEPRP | -0.169
RRIRQRPPRLPRPRPRPQWTPRP | -0.126
RRIRDRPPRLPRPRPRPNEHPRP | -0.0707
RRIRCRPPRLPRPRPRPCMGPRP | -0.241
RRIRRRPPRLPRPRPRPMVRPRP | 0.276
RRIRNRPPRLPRPRPRPRIHPRP | -0.184
RRIRPRPPRLPRPRPRPINRPRP | -0.11
RRIRCRPPRLPRPRPRPYTGPRP | -0.554

Sequence | shrunken log2 fold change
RRIRDRPPRLPRPRPRPKNFPRP | -0.174
RRIRYRPPRLPRPRPRPMYNPRP | -1.23
RRIRLRPPRLPRPRPRPPRQPRP | 0.688
RRIRNRPPRLPRPRPRPGKNPRP | 0.0906
RRIRARPPRLPRPRPRPTYQPRP | -0.163
RRIRARPPRLPRPRPRPCRAPRP | 0.261
RRIRFRPPRLPRPRPRPLLTPRP | -0.166
RRIRNRPPRLPRPRPRPGVLPRP | 0.222
RRIRQRPPRLPRPRPRPVENPRP | -0.0501
RRIRARPPRLPRPRPRPNSRPRP | 0.0429
RRIRKRPPRLPRPRPRPNYLPRP | -0.0798
RRIRHRPPRLPRPRPRPLTKPRP | 0.133
RRIRPRPPRLPRPRPRPKYWPRP | -0.127
RRIRERPPRLPRPRPRPVNCPRP | -0.315
RRIRSRPPRLPRPRPRPAPVPRP | 0.269
RRIRHRPPRLPRPRPRPRYTPRP | -0.123
RRIRDRPPRLPRPRPRPCIKPRP | 0.0183
RRIRTRPPRLPRPRPRPATQPRP | 1.54
RRIRWRPPRLPRPRPRPLHTPRP | 0.0467
RRIRVRPPRLPRPRPRPWLEPRP | 0.147
RRIRNRPPRLPRPRPRPTWRPRP | 0.421
RRIRSRPPRLPRPRPRPCYEPRP | -0.167
RRIRRRPPRLPRPRPRPTNLPRP | 0.068
RRIRERPPRLPRPRPRPMEQPRP | -0.136
RRIRIRPPRLPRPRPRPFRYPRP | -0.42

Sequence | shrunken log2 fold change
RRIRLRPPRLPRPRPRPNTCPRP | -0.823
RRIRWRPPRLPRPRPRPGVEPRP | 0.579
RRIRCRPPRLPRPRPRPRDSPRP | -0.0484
RRIRKRPPRLPRPRPRPQDDPRP | 0.00685
RRIRVRPPRLPRPRPRPYQIPRP | 0.043
RRIRRRPPRLPRPRPRPWFGPRP | -0.161
RRIRTRPPRLPRPRPRPVWRPRP | 0.302
RRIRFRPPRLPRPRPRPPKFPRP | 0.0968
RRIRWRPPRLPRPRPRPGMLPRP | -0.11
RRIRNRPPRLPRPRPRPCNHPRP | -0.298
RRIRARPPRLPRPRPRPQQCPRP | 0.132
RRIRCRPPRLPRPRPRPCSDPRP | -0.0728
RRIRGRPPRLPRPRPRPNLSPRP | 0.477
RRIRNRPPRLPRPRPRPMWHPRP | -0.404
RRIRYRPPRLPRPRPRPYDGPRP | -0.155
RRIRRRPPRLPRPRPRPESAPRP | 0.493
RRIRARPPRLPRPRPRPDNYPRP | 0.0577
RRIRWRPPRLPRPRPRPADLPRP | 0.331
RRIRHRPPRLPRPRPRPHWVPRP | -0.00951
RRIRMRPPRLPRPRPRPRLLPRP | 0.421
RRIRTRPPRLPRPRPRPLQMPRP | 0.2
RRIRYRPPRLPRPRPRPADIPRP | -0.0376
RRIRPRPPRLPRPRPRPLVVPRP | -0.0898
RRIRQRPPRLPRPRPRPNKHPRP | -0.622
RRIRRRPPRLPRPRPRPGMGPRP | 0.581
